The text below walks through data of US20220380456A1 (UNITED KINGDOM RESEARCH AND INNOVATION, published 2022).

Assay [1] has as its target T1, His6-TEV-MSP1D1 (CA15914) (human Apo A-I derived, engineered, biotinylated with EZ-link NHS-Biotin for the BLI experiment only).
T1 construct: Membrane scaffold protein; The entry holds the 6xHis tag, the TEV cleavage site and MSP1D1; Tested in Apo-state (lipid free) and in Nanodisc-state (POPC nanodisc, two MSP1D1 per nanodisc)
T1 chain: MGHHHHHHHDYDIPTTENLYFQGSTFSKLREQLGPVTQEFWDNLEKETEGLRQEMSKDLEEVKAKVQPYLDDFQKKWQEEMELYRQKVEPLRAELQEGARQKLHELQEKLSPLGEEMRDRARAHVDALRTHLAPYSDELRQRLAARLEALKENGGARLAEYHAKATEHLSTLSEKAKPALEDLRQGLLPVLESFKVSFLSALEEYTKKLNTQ
Description: ELISA, purified MegaBody on coated MSP (Apo- or Nanodisc-state) vs non-coated wells, A405.

The target of assay [2] is T2, His6-TEV-MSP2N2 (CA15915) (human Apo A-I derived, engineered, UniProt P02647 79-267, limits assumed).
T2 construct: Membrane scaffold protein; The entry holds the 6xHis tag, the TEV cleavage site and MSP2N2; Tested in Apo-state, in Nanodisc-state, and as the belt of nanodiscs loaded with GABAAR-β3
Described as above.

B1: MDNb1_B9^c7HopQ MegaBody (CA15898) (other)
chain: QVQLVESGGGLVQTKTTTSVIDTTNDAQNLLTQAQTIVNTLKDYCPILIAKSSSSNGGTNNANTPSWQTAGGGKNSCATFGAEFSAASDMINNAQKIVQETQQLSANQPKNITQPHNLNLNSPSSLTALAQKMLKNAQSQAEILKLANQVESDFNKLSSGHLKDYIGKCDASAISSANMTMQNQKNNWGNGCAGVEETQSLLKTSAADFNNQTPQINQAQNLANTLIQELGNNTYEQLSRLLTNDNGTNSKTSAQAINQAVNNLNERAKTLAGGTTNSPAYQATLLALRSVLGLWNSMGYAVICGGYTKSPGENNQKDFHYTDENGNGTTINCGGSTNSNGTHSYNGTNTLKADKNVSLSIEQYEKIHEAYQILSKALKQAGLAPLNSKGEKLEAHVTTSKYGSLRLSCAASGRTLCSIPMGWFRQAPGKEREFVAAIRWSGGSTYYADSVKGRFSISKDNAKNTVYLQMNNLKPEDTATYYCASAAPYSSWSRGLEYDYWGQGTQVTVSSHHHHHHEPEA
notes: MegaBody: c7HopQ scaffold inserted in the first β-turn of Nanobody MP1521_B9; Entry includes 6xHis and EPEA tags; The name is printed 'MDNb', probably for 'MbNb'
Consider B1, for which the “fold ELISA signal over no MSP” value in assay [1] and in assay [2] was at least 4 fold in each case.

B2: MbNb2_B9^c7HopQ MegaBody (CA15903) (other)
chain: QVQLVESGGGLVQTKTTTSVIDTTNDAQNLLTQAQTIVNTLKDYCPILIAKSSSSNGGTNNANTPSWQTAGGGKNSCATFGAEFSAASDMINNAQKIVQETQQLSANQPKNITQPHNLNLNSPSSLTALAQKMLKNAQSQAEILKLANQVESDFNKLSSGHLKDYIGKCDASAISSANMTMQNQKNNWGNGCAGVEETQSLLKTSAADFNNQTPQINQAQNLANTLIQELGNNTYEQLSRLLTNDNGTNSKTSAQAINQAVNNLNERAKTLAGGTTNSPAYQATLLALRSVLGLWNSMGYAVICGGYTKSPGENNQKDFHYTDENGNGTTINCGGSTNSNGTHSYNGTNTLKADKNVSLSIEQYEKIHEAYQILSKALKQAGLAPLNSKGEKLEAHVTTSKYGSLRLSCVRSARTFGSVAMGWFRQAPGKEREFVTAIDWSGSNTLYADSVKGRFTISRDNAKNTVYLQMNSLKPDDTAVYYCAASRRVVVTTSDFDSWGQGTQVTVSSHHHHHHEPEA
notes: MegaBody: c7HopQ scaffold inserted in the first β-turn of Nanobody MP1522_B9; Entry includes 6xHis and EPEA tags
As for B2, the “fold ELISA signal over no MSP” value in assay [1] and in assay [2] was at least 4 fold in each case.

B3: MbNbA5^c7HopQ MegaBody (CA15906) (other)
chain: QVQLVESGGGLVQTKTTTSVIDTTNDAQNLLTQAQTIVNTLKDYCPILIAKSSSSNGGTNNANTPSWQTAGGGKNSCATFGAEFSAASDMINNAQKIVQETQQLSANQPKNITQPHNLNLNSPSSLTALAQKMLKNAQSQAEILKLANQVESDFNKLSSGHLKDYIGKCDASAISSANMTMQNQKNNWGNGCAGVEETQSLLKTSAADFNNQTPQINQAQNLANTLIQELGNNTYEQLSRLLTNDNGTNSKTSAQAINQAVNNLNERAKTLAGGTTNSPAYQATLLALRSVLGLWNSMGYAVICGGYTKSPGENNQKDFHYTDENGNGTTINCGGSTNSNGTHSYNGTNTLKADKNVSLSIEQYEKIHEAYQILSKALKQAGLAPLNSKGEKLEAHVTTSKYGSLRLSCAASGFAFSNSYMSWVRQAPGKGPEWVSSISPSAWIITHGDSVKGRFTISRDNAKNTLYLQMNHLKPEDAALYYCARRQGYDGYVPSRDYWGQGTQVTVSSHHHHHHEPEA
notes: MegaBody: c7HopQ scaffold inserted in the first β-turn of Nanobody MP1522_A5; Entry includes 6xHis and EPEA tags
B3: the “fold ELISA signal over no MSP” value in assay [1] and in assay [2] was at least 4 fold in each case.

B4: MbNbB7^c7HopQ MegaBody (CA15901) (other)
chain: QVQLVESGGGLVQTKTTTSVIDTTNDAQNLLTQAQTIVNTLKDYCPILIAKSSSSNGGTNNANTPSWQTAGGGKNSCATFGAEFSAASDMINNAQKIVQETQQLSANQPKNITQPHNLNLNSPSSLTALAQKMLKNAQSQAEILKLANQVESDFNKLSSGHLKDYIGKCDASAISSANMTMQNQKNNWGNGCAGVEETQSLLKTSAADFNNQTPQINQAQNLANTLIQELGNNTYEQLSRLLTNDNGTNSKTSAQAINQAVNNLNERAKTLAGGTTNSPAYQATLLALRSVLGLWNSMGYAVICGGYTKSPGENNQKDFHYTDENGNGTTINCGGSTNSNGTHSYNGTNTLKADKNVSLSIEQYEKIHEAYQILSKALKQAGLAPLNSKGEKLEAHVTTSKYGSLRLSCAASGRSFSSYGMGWFRQAPGKEREFAAGITGTAGITYYTDSVKGRFTISRDNAKNTVYLQMNNLKPEDTAVYYCAAGLTSYAGRGAAGYDYWGQGTQVTVSSHHHHHHEPEA
notes: MegaBody: c7HopQ scaffold inserted in the first β-turn of Nanobody MP1522_B7; Entry includes 6xHis and EPEA tags
On to B4, for which the “fold ELISA signal over no MSP” value in assay [1] and in assay [2] was at least 4 fold in each case.

B5: MbNbE4^c7HopQ MegaBody (CA15191) (other)
chain: QVQLVESGGGLVQTKTTTSVIDTTNDAQNLLTQAQTIVNTLKDYCPILIAKSSSSNGGTNNANTPSWQTAGGGKNSCATFGAEFSAASDMINNAQKIVQETQQLSANQPKNITQPHNLNLNSPSSLTALAQKMLKNAQSQAEILKLANQVESDFNKLSSGHLKDYIGKCDASAISSANMTMQNQKNNWGNGCAGVEETQSLLKTSAADFNNQTPQINQAQNLANTLIQELGNNTYEQLSRLLTNDNGTNSKTSAQAINQAVNNLNERAKTLAGGTTNSPAYQATLLALRSVLGLWNSMGYAVICGGYTKSPGENNQKDFHYTDENGNGTTINCGGSTNSNGTHSYNGTNTLKADKNVSLSIEQYEKIHEAYQILSKALKQAGLAPLNSKGEKLEAHVTTSKYGSLRLSCAASGRTFGSTFMGWFRQAPGKERDFVASITWNRGLTTYADSVKGRFTISRDSAKNTVDLQMNNLKPEDTAVYYCVLGMGTSFASWGQGTQVTVSSHHHHHHEPEA
notes: MegaBody: c7HopQ scaffold inserted in the first β-turn of Nanobody MP1521_E4; Entry includes 6xHis and EPEA tags
In the case of B5, the “fold ELISA signal over no MSP” value in assay [1] and in assay [2] was at least 4 fold each time.

B6: MbNbG9^c7HopQ MegaBody (CA15899) (other)
chain: QVQLVESGGGSVQTKTTTSVIDTTNDAQNLLTQAQTIVNTLKDYCPILIAKSSSSNGGTNNANTPSWQTAGGGKNSCATFGAEFSAASDMINNAQKIVQETQQLSANQPKNITQPHNLNLNSPSSLTALAQKMLKNAQSQAEILKLANQVESDFNKLSSGHLKDYIGKCDASAISSANMTMQNQKNNWGNGCAGVEETQSLLKTSAADFNNQTPQINQAQNLANTLIQELGNNTYEQLSRLLTNDNGTNSKTSAQAINQAVNNLNERAKTLAGGTTNSPAYQATLLALRSVLGLWNSMGYAVICGGYTKSPGENNQKDFHYTDENGNGTTINCGGSTNSNGTHSYNGTNTLKADKNVSLSIEQYEKIHEAYQILSKALKQAGLAPLNSKGEKLEAHVTTSKYGSLRLSCAASGRTFSTYRMGWFRQAPGKEREFVAGWNSINIYYADSVKGRFTISGDNAKSTVYLQMNSLKPEDTAVYYCAARGLGQTEYNYWGQGTQVTVSSHHHHHHEPEA
notes: MegaBody: c7HopQ scaffold inserted in the first β-turn of Nanobody MP1521_G9; Entry includes 6xHis and EPEA tags
Regarding B6, the “fold ELISA signal over no MSP” value in assay [1] and in assay [2] was at least 4 fold in each case.

B7: MbNbH5^c7HopQ MegaBody (CA15904) (other)
chain: QVQLVESGGGLVQTKTTTSVIDTTNDAQNLLTQAQTIVNTLKDYCPILIAKSSSSNGGTNNANTPSWQTAGGGKNSCATFGAEFSAASDMINNAQKIVQETQQLSANQPKNITQPHNLNLNSPSSLTALAQKMLKNAQSQAEILKLANQVESDFNKLSSGHLKDYIGKCDASAISSANMTMQNQKNNWGNGCAGVEETQSLLKTSAADFNNQTPQINQAQNLANTLIQELGNNTYEQLSRLLTNDNGTNSKTSAQAINQAVNNLNERAKTLAGGTTNSPAYQATLLALRSVLGLWNSMGYAVICGGYTKSPGENNQKDFHYTDENGNGTTINCGGSTNSNGTHSYNGTNTLKADKNVSLSIEQYEKIHEAYQILSKALKQAGLAPLNSKGEKLEAHVTTSKYGSLRLSCAASGFTFSTYSMSWVRQAPGKGLEWVSRILTDGGTTSYPDSVKGRFTISRDNAKNTLYLQMNNLKPEDTAVYYCARGWPSDGYSGGYRGQGTQVTVSSHHHHHHEPEA
notes: MegaBody: c7HopQ scaffold inserted in the first β-turn of Nanobody MP1521_H5; Entry includes 6xHis and EPEA tags
Regarding B7, the “fold ELISA signal over no MSP” value in assay [1] and in assay [2] was at least 4 fold each time.

B8: MbNbC10^c7HopQ MegaBody (CA15905) (other)
chain: QVQLVESGGGLVQTKTTTSVIDTTNDAQNLLTQAQTIVNTLKDYCPILIAKSSSSNGGTNNANTPSWQTAGGGKNSCATFGAEFSAASDMINNAQKIVQETQQLSANQPKNITQPHNLNLNSPSSLTALAQKMLKNAQSQAEILKLANQVESDFNKLSSGHLKDYIGKCDASAISSANMTMQNQKNNWGNGCAGVEETQSLLKTSAADFNNQTPQINQAQNLANTLIQELGNNTYEQLSRLLTNDNGTNSKTSAQAINQAVNNLNERAKTLAGGTTNSPAYQATLLALRSVLGLWNSMGYAVICGGYTKSPGENNQKDFHYTDENGNGTTINCGGSTNSNGTHSYNGTNTLKADKNVSLSIEQYEKIHEAYQILSKALKQAGLAPLNSKGEKLEAHVTTSKYGSLRLSCAASGRTSGSYAIGWFRQAPGKEREFAAAISFTAGVTYYSNSVKGRFTISRDSAKNTAYLQMNTLKPEDTAVYYCATLPSLVLILTAKPNIGYWGQGTQVTVSSHHHHHHEPEA
notes: MegaBody: c7HopQ scaffold inserted in the first β-turn of Nanobody MP1522_C10; Entry includes 6xHis and EPEA tags
For B8, the “fold ELISA signal over no MSP” value in assay [1] and in assay [2] was at least 4 fold each time.

B9: MbNbA12^c7HopQ MegaBody (CA15900) (other)
chain: QVQLVESGGGLVQTKTTTSVIDTTNDAQNLLTQAQTIVNTLKDYCPILIAKSSSSNGGTNNANTPSWQTAGGGKNSCATFGAEFSAASDMINNAQKIVQETQQLSANQPKNITQPHNLNLNSPSSLTALAQKMLKNAQSQAEILKLANQVESDFNKLSSGHLKDYIGKCDASAISSANMTMQNQKNNWGNGCAGVEETQSLLKTSAADFNNQTPQINQAQNLANTLIQELGNNTYEQLSRLLTNDNGTNSKTSAQAINQAVNNLNERAKTLAGGTTNSPAYQATLLALRSVLGLWNSMGYAVICGGYTKSPGENNQKDFHYTDENGNGTTINCGGSTNSNGTHSYNGTNTLKADKNVSLSIEQYEKIHEAYQILSKALKQAGLAPLNSKGEKLEAHVTTSKYGSLRLSCAASGRTFSSYNMAWFRQVPGKEREFVASIARTGSGTYYRDSVKGRFTISRDNAKNTVYLQMNSLKPQDTAVYYCTAGGSLATISDYWGQGTQVTVSSHHHHHHEPEA
notes: MegaBody: c7HopQ scaffold inserted in the first β-turn of Nanobody MP1522_A12; Entry includes 6xHis and EPEA tags
Take B9: the “fold ELISA signal over no MSP” value in assay [1] and in assay [2] was at least 4 fold in each case.
